Data: patent publication US9988424 (DUKE UNIVERSITY, dated 2018)

Assays:
[1] = target: T1, SIV CPZ US-1 gp140CF (SIVcpz); test: ELISA
T1 construct: also called US-1 SIVCPZ gp140CF
T1 chain: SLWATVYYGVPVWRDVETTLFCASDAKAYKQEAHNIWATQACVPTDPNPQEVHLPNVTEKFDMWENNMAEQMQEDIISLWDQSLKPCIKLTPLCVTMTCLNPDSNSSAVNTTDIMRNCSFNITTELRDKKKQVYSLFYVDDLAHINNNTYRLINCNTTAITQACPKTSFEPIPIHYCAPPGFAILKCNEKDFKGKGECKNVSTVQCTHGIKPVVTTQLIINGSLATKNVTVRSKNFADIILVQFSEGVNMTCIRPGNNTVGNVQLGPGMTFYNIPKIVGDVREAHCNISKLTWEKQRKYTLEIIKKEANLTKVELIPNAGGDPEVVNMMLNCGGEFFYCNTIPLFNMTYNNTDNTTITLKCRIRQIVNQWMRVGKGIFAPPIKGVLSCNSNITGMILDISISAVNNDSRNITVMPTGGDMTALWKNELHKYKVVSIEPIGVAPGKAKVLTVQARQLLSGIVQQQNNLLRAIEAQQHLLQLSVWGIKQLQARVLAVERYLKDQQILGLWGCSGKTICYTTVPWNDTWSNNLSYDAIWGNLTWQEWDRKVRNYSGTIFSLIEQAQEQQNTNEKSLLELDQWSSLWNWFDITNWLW

[2] = target: T2, AE.97CNG2XF gp140CF (HIV-1); test: ELISA
T2 construct: also called E.97CNGX2F gp140CF

[3] = target: T3, B.HXB/BAL gp140CFI (HIV-1, UniProt P04578 33-680); test: ELISA
T3 construct: also called B.HxB/Ba gp140 CFI

[4] = target: C.1086 gp120 (HIV-1); test: ELISA
[5] = target: T4, AE.A244 gD+ gp120 (HIV-1); test: ELISA
T4 construct: domain: gp120; also called AE.A244 gp120gD+

[6] = target: B.9021 gp140C (HIV-1); test: ELISA
[7] = target: T5, AE.92TH023 gp120 gD+ (HIV-1); test: ELISA
T5 construct: domain: gp120; also called AE.92TH023 gp12 gD+

[8] = target: AE.A244 V1V2 Tags (HIV-1); test: ELISA OD405nm, antibody at 33, 11.1 and 1.2 ug/ml
[9] = target: AE.A244 V1V2 Tags (HIV-1); test: ELISA OD405nm, bar chart, antibody concentration not given
[10] = target: Con 6 gp120; test: ELISA, OD405 at 10 ug/ml
[11] = target: T6, gp70 C.1086 V1/V2 (HIV-1 V1V2 on murine leukemia virus gp70); test: ELISA, OD405 at 10 ug/ml
T6 construct: also called C.gp70 1086C V1V2; C.1086gp70V1V2
T6 chain: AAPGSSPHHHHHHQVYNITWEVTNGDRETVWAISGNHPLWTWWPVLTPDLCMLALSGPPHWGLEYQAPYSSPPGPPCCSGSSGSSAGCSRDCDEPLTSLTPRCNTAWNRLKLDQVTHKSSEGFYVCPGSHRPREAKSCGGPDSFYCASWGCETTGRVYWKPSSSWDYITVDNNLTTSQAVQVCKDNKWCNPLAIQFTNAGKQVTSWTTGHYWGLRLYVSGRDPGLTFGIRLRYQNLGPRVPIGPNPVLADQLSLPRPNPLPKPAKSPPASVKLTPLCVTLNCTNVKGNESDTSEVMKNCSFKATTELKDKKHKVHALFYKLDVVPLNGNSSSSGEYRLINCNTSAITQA

[12] = target: T1, SIV CPZ US-1 gp140CF; test: ELISA, OD405 at 10 ug/ml
[13] = target: T2, AE.97CNG2XF gp140CF; test: ELISA, OD405 at 10 ug/ml
[14] = target: T7, gp70 B.CaseA2 V1/V2 (HIV-1 V1V2 on murine leukemia virus gp70); test: ELISA, OD405 at 10 ug/ml
T7 construct: also called B.gp70CaseA2 V1/V2; gp70 B.CaseAV1V2
T7 chain: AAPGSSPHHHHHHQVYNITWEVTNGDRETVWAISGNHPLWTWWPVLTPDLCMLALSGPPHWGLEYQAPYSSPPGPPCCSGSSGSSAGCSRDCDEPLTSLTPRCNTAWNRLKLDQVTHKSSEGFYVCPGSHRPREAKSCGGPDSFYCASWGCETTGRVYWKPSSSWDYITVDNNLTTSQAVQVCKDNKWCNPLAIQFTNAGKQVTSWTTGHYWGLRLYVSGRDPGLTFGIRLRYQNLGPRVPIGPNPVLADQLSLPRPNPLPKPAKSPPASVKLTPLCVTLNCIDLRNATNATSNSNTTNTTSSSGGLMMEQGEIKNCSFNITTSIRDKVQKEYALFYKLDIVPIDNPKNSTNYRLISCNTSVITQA

[15] = target: T3, B.HXB/BAL gp140CFI; test: ELISA, OD405 at 10 ug/ml
[16] = target: B.040 gp140C; test: ELISA, OD405 at 10 ug/ml
[17] = target: B.con gp140CF; test: ELISA, OD405 at 10 ug/ml
[18] = target: G.con gp140CF; test: ELISA, OD405 at 10 ug/ml
[19] = target: C.CAP206 gp140CF.12 (HIV-1); test: ELISA, OD405 at 10 ug/ml
[20] = target: AE.con gp140CF; test: ELISA, OD405 at 10 ug/ml
[21] = target: T8, C.1086 gp140; test: ELISA, OD405 at 10 ug/ml
T8 construct: also called C.1086gp140C

[22] = target: T9, A.9004SS V1/V2 tags; test: ELISA, OD405 at 10 ug/ml
T9 V1V2 tags construct: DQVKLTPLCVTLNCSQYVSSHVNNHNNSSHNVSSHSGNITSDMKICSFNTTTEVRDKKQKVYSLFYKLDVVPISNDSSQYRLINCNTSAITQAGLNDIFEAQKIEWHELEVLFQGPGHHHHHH

[23] = target: AE.A244 V1V2 Tags (HIV-1); test: ELISA
[24] = target: T10, AE.A244 gp120 delta 11 (HIV-1); test: ELISA
T10 construct: also called E.A244gp120Δ11; AE.A244 Δ11 gp120

B1: HG107 (antibody, V domains shown)
VH: EVQLVESGGDLVQPGRSLRLSCAASGFTFDDYAMHWVRQAPGKGLEWISGISGNSGSRGYADSVKGRFTISRDNAKNSLYLQMNSLRAEDTALYYCATDGDRSGTTPLDHWGQGTRVTVSS
VL: SYELTQPPSVSVSPGQTARITCSGDALPKNYAYWYQQKSGQAPALVIYEDSKRPSGIPERFSGSSSGTMATLTISGAQVEDEADYYCYSTDSSGTPSFGTGTKVTVL
notes: also called mAb HG107
- binding result [1]: no binding
- EC50 [2]: 0.055 µg/mL
- binding result [3]: no binding
- EC50 [4]: 0.03 µg/mL
- EC50 [5]: 0.03 µg/mL
- binding result [6]: no binding
- EC50 [7]: 0.04 µg/mL

B2: HG120 (antibody, V domains shown)
VH: EVQLVESGGGLVQPGGSLRLSCAASGFTFSSYAMRWVRQAPGKGLEWVSGISGSGGSTYYADSVKGRFTISRDNSKITLYLQMDSLRVEDTAVYYCATAPLSYDSSTDYWGQGTLVTVSS
VL: SYELTQPPSVSVSPGQTARITCSGDALPKKYAYWYQQKSGQAPVLVIYEDSKRPSGIPERFSGSSSGTMATLTISGAQVEDEADYYCYSTDSSGNPRFGRGTKLTVL
notes: also called mAb HG120
- binding result [1]: no binding
- EC50 [2]: 0.06 µg/mL
- binding result [3]: no binding
- EC50 [4]: 0.02 µg/mL
- EC50 [5]: 0.02 µg/mL
- binding result [6]: no binding
- EC50 [7]: 0.02 µg/mL

B3: CH01 RUA 1 (antibody, V domains shown)
VH: EVQLVESGGGVVRPGGSLRLSCAASGFTFDDYGMSWVRQAPGKGLEWVSGINWNGGSTGYADSVKGRFTISRDNAKNSLYLQMNSLRAEDTALYYCARGTDYTIDDQGIRYQGSGTFWYFDLWGRGTLVTVSS
VL: not shown
- binding result [8]: binds

B4: CH01 RUA 2 (antibody, V domains shown)
VH: EVQLVESGGGVVRPGGSLRLSCAASGFTFDDYGMSWVRQAPGKGLEWVSGINWNGGSTGYADSVKGRFTISRDNAKNSLYLQMNSLRAEDTALYYCARGTDYTIDDQGILYQGSGTFWYFDLWGRGTLVTVSS
VL: not shown
- binding result [9]: binds

B5: CH01 UA3 (antibody, V domains shown)
VH: EVQLVESGGGVVRPGGSLRLSCAASGFTFDDYGMSWVRQAPGKGLEWVSGINWNGGSTGYADSVKGRFTISRDNAKNSLYLQMNSLRAEDTALYHCARGTDYTIDDQGIHYYGSGTYWYFDLWGRGTLVTVSS
VL: not shown
- binding result [10]: no binding (tested: 10 ug/ml)
- binding result [11]: no binding (tested: 10 ug/ml)
- binding result [12]: no binding (tested: 10 ug/ml)
- binding result [13]: no binding (tested: 10 ug/ml)
- binding result [14]: no binding (tested: 10 ug/ml)
- binding result [15]: no binding (tested: 10 ug/ml)
- binding result [16]: no binding (tested: 10 ug/ml)
- binding result [17]: no binding (tested: 10 ug/ml)
- binding result [18]: no binding (tested: 10 ug/ml)
- binding result [19]: no binding (tested: 10 ug/ml)
- binding result [20]: no binding (tested: 10 ug/ml)
- binding result [21]: no binding (tested: 10 ug/ml)
- binding result [22]: no binding (tested: 10 ug/ml)
- EC50 [23]: 18 nM
- EC50 [24]: 9.3 nM
